B1: Trimeric TSP1 fragment, oligomerization domain + procollagen + type 1 repeats (aa 261–547) (domain or fragment, human, UniProt P07996 261-547, looked up)
chain: HKTKDLQAICGISCDELSSMVLELRGLRTIVTTLQDSIRKVTEENKELANELRRPPLCYHNGVQYRNNEEWTVDSCTECHCQNSVTICKKVSCPIMPCSNATVPDGECCPRCWPSDSADDGWSPWSEWTSCSTSCGNGIQQRGRSCDSLNNRCEGSSVQTRTCHIQECDKRFKQDGGWSHWSPWSSCSVTCGDGVITRIRLCNSPSPQMNGKPCEGEARETKACKKDACPINGGWGPWSPWDICSVTCGGGVQKRSRLCNNPTPQFGGKDCVGDVTENQICNKQDCP
notes: Subcloned into HindIII and XbaI sites of the APtag-5 vector; also called trimeric TSP1 fragment containing the procollagen domain and type 1 repeats; trimeric TSP1 fragment that contains all three type 1 repeats; source: HEK293E suspension culture, transient transfection, purified from culture supernatant (HisTrap Excel); not shown: Myc, C-terminal, kept
B2: Trimeric TSP1 fragment, oligomerization domain + procollagen (aa 261–373) (domain or fragment, human, UniProt P07996 261-373, looked up)
chain: HKTKDLQAICGISCDELSSMVLELRGLRTIVTTLQDSIRKVTEENKELANELRRPPLCYHNGVQYRNNEEWTVDSCTECHCQNSVTICKKVSCPIMPCSNATVPDGECCPRCW
notes: thrombospondin-1 (TSP1), human, oligomerization domain + procollagen, aa 261-373; Subcloned into HindIII and XbaI sites of the APtag-5 vector; also called trimeric TSP1 fragment containing the procollagen domain alone; source: HEK293E suspension culture, transient transfection, purified from culture supernatant (HisTrap Excel); not shown: Myc, C-terminal, kept
B3: Trimeric TSP1 fragment, oligomerization domain + procollagen + 1^st & 2^nd type 1 repeats (aa 261–490) (domain or fragment, human, UniProt P07996 261-490, looked up)
chain: HKTKDLQAICGISCDELSSMVLELRGLRTIVTTLQDSIRKVTEENKELANELRRPPLCYHNGVQYRNNEEWTVDSCTECHCQNSVTICKKVSCPIMPCSNATVPDGECCPRCWPSDSADDGWSPWSEWTSCSTSCGNGIQQRGRSCDSLNNRCEGSSVQTRTCHIQECDKRFKQDGGWSHWSPWSSCSVTCGDGVITRIRLCNSPSPQMNGKPCEGEARETKACKKDACP
notes: thrombospondin-1 (TSP1), human, oligomerization domain + procollagen + 1st and 2nd type 1 repeats, aa 261-490; Subcloned into HindIII and XbaI sites of the APtag-5 vector; source: HEK293E suspension culture, transient transfection, purified from culture supernatant (HisTrap Excel); not shown: Myc, C-terminal, kept
B4: Trimeric TSP1 fragment, oligomerization domain + procollagen and 1^st type 1 repeat (aa 261–429) (domain or fragment, human, UniProt P07996 261-429, looked up)
chain: HKTKDLQAICGISCDELSSMVLELRGLRTIVTTLQDSIRKVTEENKELANELRRPPLCYHNGVQYRNNEEWTVDSCTECHCQNSVTICKKVSCPIMPCSNATVPDGECCPRCWPSDSADDGWSPWSEWTSCSTSCGNGIQQRGRSCDSLNNRCEGSSVQTRTCHIQECD
notes: thrombospondin-1 (TSP1), human, oligomerization domain + procollagen + 1st type 1 repeat, aa 261-429; Subcloned into HindIII and XbaI sites of the APtag-5 vector; also called trimeric TSP1 fragment containing the procollagen domain and the 1st type 1 repeat; source: HEK293E suspension culture, transient transfection, purified from culture supernatant (HisTrap Excel); not shown: Myc, C-terminal, …

Biological target: the molecule itself
Assay: SDS-PAGE in non-reducing and reducing conditions; purified fragments separated in non-reducing and reducing (50 mM DTT) conditions; colloidal blue stain and anti-Myc immunoblot

Stoichiometry N, 3:
B1
B2
B3
B4

Source: article PMC4858292, “Determination of the CD148-Interacting Region in Thrombospondin-1” (PLoS ONE, 2016)
